The source of these data is article PMC4118823, “Structural and biophysical analysis of interactions between cod and human uracil-DNA N-glycosylase (UNG) and UNG inhibitor (Ugi)” (Acta Crystallographica Section D: Biological Crystallography, 2014).

Experiment [1] deals with T1, human uracil-DNA N-glycosylase (human, UniProt P13051-2 1-304).
T1 construct: Human uracil-DNA N-glycosylase (UNG), recombinant; also called hUNG; human UNG; source: expression and purification as described previously (Assefa et al., 2012)
Nature of the experiment: ITC; Ugi (267-667 µM, syringe) injected into UNG (20-50 µM, cell); 25°C; 20 mM sodium phosphate pH 7.5, 200 mM sodium chloride; single-site binding model. The settings on record: both partners purified. (ITC needs no label: the signal is the heat of the interaction.)

Experiment [2] deals with T2, Uracil-DNA N-glycosylase from Atlantic cod (Atlantic cod, UniProt Q9I983 82-301).
T2 construct: Catalytic domain of uracil-DNA N-glycosylase (UNG) from Atlantic cod; Lanes et al., 2002). numbers count on: hUNG numbering; also called cUNG; cod UNG; source: recombinantly produced in E. coli; expression and purification as described previously (Assefa et al., 2012)
Described as above. Conditions: both partners purified.

For orientation: Kd means the constant that tells how readily two partners part at equilibrium. Read a high Kd as lower affinity. One may read the stoichiometry N as a count of units in the complex or per binding partner.

T2 sequence (Q9I983 entry or part of it): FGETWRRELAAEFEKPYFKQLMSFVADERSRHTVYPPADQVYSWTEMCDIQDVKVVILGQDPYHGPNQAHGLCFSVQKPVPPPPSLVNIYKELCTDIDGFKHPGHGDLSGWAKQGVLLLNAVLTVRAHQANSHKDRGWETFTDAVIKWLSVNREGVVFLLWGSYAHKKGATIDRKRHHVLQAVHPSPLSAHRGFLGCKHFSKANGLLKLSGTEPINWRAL
T1 sequence (P13051 94-313): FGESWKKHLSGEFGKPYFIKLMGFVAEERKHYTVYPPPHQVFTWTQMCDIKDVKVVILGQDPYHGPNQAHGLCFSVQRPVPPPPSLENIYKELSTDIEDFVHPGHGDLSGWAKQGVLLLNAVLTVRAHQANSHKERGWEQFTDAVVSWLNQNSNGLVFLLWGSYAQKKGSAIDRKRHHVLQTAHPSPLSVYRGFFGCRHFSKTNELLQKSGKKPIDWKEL

B1: uracil-DNA N-glycosylase inhibitor (Ugi) (natural protein)
chain: MTNLSDIIEKETGKQLVIQESILMLPEEVEEVIGNKPESDILVHTAYDESTDENVMLLTSDAPEYKPWALVIQDSNGENKIKML
notes: expressed from a recombinant pRSETb plasmid provided by T. Géoui; source: E. coli BL21 (DE3) pLysS, purified (heating to 95°C, Q-Sepharose, Superdex 75)
Consider B1, for which, in experiment [1], the Ka was found to be 1.5e+06 M⁻¹, the Kd came to 685 nM, the dH is -2.25 kcal/mol and the “stoichiometry N” value was 0.921. Moreover, in experiment [2], the Ka was 3.25e+07 M⁻¹, binding was characterised by a dissociation constant (Kd) of 31 nM, the dH is -6 kcal/mol and the “stoichiometry N” value is 0.994.
